Earlier results, collected in paper PMC2900478.
pKd: −log10 of the molar value.

Biological target: GABARAP (Homo sapiens) (UniProt O95166)
Chain of UniProt O95166 (O95166 1-116): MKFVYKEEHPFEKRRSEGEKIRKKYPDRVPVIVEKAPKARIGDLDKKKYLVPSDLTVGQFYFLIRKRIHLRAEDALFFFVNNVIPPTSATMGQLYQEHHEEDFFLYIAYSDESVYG

Substance: Nix (from UniProt O60238)
- pKd: 4.00
